The results in this text go back to patent publication US20220296683A1, “ORAL DELIVERY SYSTEM” (University College Dublin, priority 2019, published 2022).

This series is described as follows: Circular dichroism of secondary structure of SiNP-released peptide. The series is classed as physicochemical. Particulars: CD. The source says: The behaviour of insulin-SiNPs and exenatide-SiNPs in biologically-relevant buffers depended on media pH and salinity. Both constructs aggregated in PBS, while remaining colloidally-stable in simulated small intestinal fluid (SIF) at pH 6.3 (Supplementary FIGS. 18, 19 for insulin-SiNPs and exenatide-SiNPs, respectively). PBS was used to measure the concentration of the released peptide, while SIF was used to examine secondary structure. For insulin-SiNPs (˜300 nm in diameter, particle concentration of 0.2 mg/mL), release was measured by HPLC in simulated gastric fluid (SGF) at pH 2.3, SIF at pH 6.3, and PBS at pH 7.4. […] Exenatide-SiNP dissolved in PBS in a size-dependent fashion: particles of ˜90 nm in diameter dissolved within 60 min at a particle concentration 0.2 mg/mL, while ˜200 nm diameter particles took over 3 h (Supplementary FIG. 20a). […] Parameters used were as follows: • Measurement window: 200-300 nm. • Data pitch: 0.5 nm • Band width: 2 nm • Response: 4 sec • Scanning speed 50 nm/min • Number of runs in measurement (accumulation): 8 • Temperature: Room temperature (20° C.) Insulin, L-arg solutions, mixtures and insulin core and SiNPs were measured at appropriate concentration in an ultra-low volume (1=1 mm) cuvette and at appropriate concentrations. […]
(CD spectra are sensitive to the conformation of chiral molecules.)

“released exenatide: exenatide released from exenatide-SiNPs in PBS”: the “secondary structure of released peptide vs free peptide” value is listed as “comparable to that of the free peptide”.
